Results taken from patent US20130045195.

How the values were obtained:
[1] = molecular target: T1, celiac disease relevant peptide LGQQQPFPPQQPYPQPQPF
T1 chain: LGQQQPFPPQQPYPQPQPF

[2] = molecular target: T2, celiac disease relevant peptide PQQPQQSFPQQQPPF
T2 chain: PQQPQQSFPQQQPPF

[3] = molecular target: T3, celiac disease relevant peptide QLPQQPQQF
T3 chain: QLPQQPQQF

Measured: degradation of peptide analyzed by reverse phase liquid chromatography (50 µg/mL peptide, 25 µg/mL enzyme, 37 °C, pH 4.5, 1 hr)

B1: XP-972061 (proline specific protease, LOC660762, similar to prolylcarboxypeptidase / thymus-specific serine protease) (protein)
chain: RIFRNGRMVGGNLGEPKCNCKESSIKEVQEEWFTQNLDHFNPTDETTWKQRFYSNDQFFDPKNGGPVFLMIGGEGEASIKWMTQGAWVNYAEKFGALMFQLEHRYYGKSHPTDDLSTQNLKYLTSQQALADLATFITAMNEKYSLPPDVKWIAFGGSYPGSLAAWLRFKYPHLVHGAMSASGPLLAQVDFKDYFRVIKESLATHSDDCVTAVQQGVDQIGVLLKQEIGQANLNELFKLCDPVQNSINNEKDISNLYETIADDFAGVVQYNKDNRVGSPAGANITIDVVCDIMVNQTIGPPVNRLAKVNEVLLSAYDQKCLDYNYDKMINNLRNVSWDSEASEGGRQWTYQTCTEFGFYQTSDYEPQIFGDQFSVDFFIQQCTDIFGSIYDEDFLNSATERTNTYYGGLDIEVSNVVFVHGSIDPWHALGITKTIDEEAPAIYIEGTAHCANMYPPADTDLPQLKEAREQILNLIGTWLAQ
completely proteolyzed: all assays above
